experiment: soluble on expression in E. coli; label from the status in PepcDB or PDB records

Sequence	soluble on expression in E. coli
DNYFRIHVKKLPEENKDAQGLWTWDDVEKPSENWPNGALSFKDAKKDDYGYYLDVKLKGEQAKKISFLINNTAGKNLTGDKSVEKLVPKMNEAWLDQDYKVFSYEPQPAGTVRVNYYRTDGNYDKKSLWYWGDVKNPSSAQWPDGTDFTATGKYGRYIDIPLNEAAREFGFLLLDESKGDVKIRKENYKFTDLKNHSQIFLKDDDESIYTNPYYVHD	soluble
KESCKMFIGGLNWDTTEDNLREYFGKYGTVTDLKIMKDPATGRSRGFGFLSFEKPSSVDEVVKTQHILDGKVIDPKRAIPRDEQDKTGKIFVGGIGPDVRPKEFEEFFSQWGTIIDAQLMLDKDTGQSRGFGFVTYDSADAVDRVCQNKFIDFKDRKIEIKRAEPRH	soluble
MSSANIPATQSALIFEKYGGPLEVRQVSVPQPQENELLVKIEYSGICHSDLHTWEGDFEYASICPLIGGHEGAGTVVTIGSKVKGWNIGDRAGIKLINANCLNCEYCKTGHEPLCDHIQNYGIDRHGTFQEYLTIRDIDAIKVSNDTNLAAAAPVLCGGVTAYKSLKATNVKPGQIVVLTGAGGGLGSFGIQYAKAMGMRVVAVDHISKEDHCRNLGAEWFVDAFDTPDIVAHIRKLTNGGAHGVVSFAAAKKPMEYALEYVRKRGTVVFVGLPKDGTIPLDTLSLICNEITVKGSIVGSRMDVDEAIDFITRGIVHVPIELVKLEDVPSVYQRMKDGKVTSRVVVDFSMR	not soluble
MGHHHHHHSHMANSAGSMANSAGSMFKLYSLAREFARDLLFEINGDVVTLSIKGVLLANTSSTSSNFSIFEVSENEFILAIQTSGYVVYLGIEAEEEIEEEVYPSLVRIIISEVMPIINNLVQVAKELSYKGADILLDDNMSSSLREAMYNLLLKHKKGKSPYEQVEVA	not soluble
MAQEVIKIRGGRTLNGEVNISGAKNSAVAIIPATLLAQGHVKLEGLPQISDVKTLVSLLEDLNIKASLNGTELEVDTTEIQNAALPNNKVESLRASYYMMGAMLGRFKKCVIGLPGGCPLGPRPIDQHIKGFKALGAEIDESSTTSMKIEAKELKGAHIFLDMVSVGATINIMLAAVYATGQTVIENAAKEPEVVDVANFLTSMGANIKGAGTSTIKINGVKELHGSEYQVIPDRIEAGTYMCIAAACGENVILNNIVPKHVETLTAKFSELGVNVDVRDERIRINNNAPYQFVDIKTLVYPGFATDLQQPITPLLFMANGPSFVTDTIYPERFKHVEELKRMGANIEVDEGTATIKPSTLHGAEVYASDLRAGACLIIAGLIAEGVTTIYNVKHIYRGYTDIVEHLKALGADIWTETV	not soluble
MKGNALCTGEPVMTIETRGGGSEDIAVLPLDPTGNITRLFIRERCNDSSDPECKTGQWRLGSVDISRENTPASTRYAWRPGNNASEDDFEPLGMSLVPGNTPGEGTLFVIDIARPQSVRIWQLDISGGEITKATLATPADTQTGARLTAANSLQAVRNDDSRSFHLTITRFDEYGLLPFRPTPWPALVRINNGVIQPPPAQDFRNANGIIRPCAGCDLVIASYWERRLRFVSKENGEIGEYASAELPIRPDNLRLDGERILIAGQRRVDLTALNLLVSPHIPSPSGVYAIDTRSLGPDTVPTLLWEGGWKHGHSVATAVALPGNRLAIGQINTPGILIADCSPLEHHHHHH	not soluble
MGSDKIHHHHHHMNDLSRSPYILEMRNVSKTFPGVKALDGINLKVKRGTIHALMGENGAGKSTLMKILYGIYTPDAGGELILDDKPFKPSAPIDAIRTGLTMVPQEISPAGNLTIADNFYLGREITRSKFFLNQKEMDCKTAEILNELGIPMDVTAKMSDVSVAKAQLVAIATAVSNDAKVIIMDEPTTALTEVEVEQLYKIIETVRQRGISIIFISHKLDEVFRVSDEITVIRDGQYVGTKLTSEVTKDELISMMVGRDMSEMFQRERIVISDEVVLEIKNFSRAGKYHDINFQVRRGEIFGIAGLVGAGRSEIVEGLFGYKLADSGEIYVHGEKADIKTPLDAMKYKIGFVTEDRKLTGLFLNLSITDNMIMPRMSPYLENFLVSVTKAQKSANAQKDKLKIKAPNVEVITNNLSGGNQQKVLLARWLLLEPDILILDEPTKGIDVGAKAELYKLMVELAKQGKSIIMITSDMLELLSMSDRVMVMHEGRVAGIIPQEELTQERVLELASGLGQV	not soluble
TASIGAAAILGAPIMHDFCHISLSDLMTPWEVIEKRLRLAAEADFVICLYNPRSKGRSEHLSKAFKIMGEFKGGDTPVGVVKDVGREKEEKFVCTFENMDFEKVDMTTMVIIGNKSTY	not soluble
MSLRAYIPIDKYSLPEKFEIPLGNTNYIFEVDYNQTEKFFTVDLYDIDHTPIAIGERMVIDERLWQDIVDTRLPSADLVPMDESGASKEITFENFGIQVFLYIDDLPPNYNVPSLEREDN	not soluble

Reference: the DeepSol protein solubility set
